Measurements published in US20130280734A1.

Target: human GLP-1 receptor (GLP-1R) (human) (UniProt P43220)
Test: cell-based or functional assay
Conditions: scale: times higher concentration than the active forms of GLP-1

Sequence of human GLP-1 receptor (GLP-1R) (human) (P43220 24-463 limits assumed): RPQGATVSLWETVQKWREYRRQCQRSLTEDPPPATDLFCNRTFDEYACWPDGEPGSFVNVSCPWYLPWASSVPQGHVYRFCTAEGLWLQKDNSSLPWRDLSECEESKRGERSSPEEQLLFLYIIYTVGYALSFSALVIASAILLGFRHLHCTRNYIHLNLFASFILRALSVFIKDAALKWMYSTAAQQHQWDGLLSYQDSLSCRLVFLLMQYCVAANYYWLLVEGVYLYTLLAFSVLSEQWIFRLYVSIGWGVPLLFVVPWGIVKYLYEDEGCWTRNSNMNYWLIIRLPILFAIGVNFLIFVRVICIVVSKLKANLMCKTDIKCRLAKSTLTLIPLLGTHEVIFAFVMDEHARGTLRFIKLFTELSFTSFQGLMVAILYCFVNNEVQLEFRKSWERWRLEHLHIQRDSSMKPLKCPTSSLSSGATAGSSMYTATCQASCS

reactivity of the kit (aequorin luminescence), concentration relative to the active forms of GLP-1	Substance
> 1e+06	GLP-2 (from UniProt P01275 146-178) (peptide)
> 1e+06	GLP-1 (9-36 amide) (from UniProt P01275 21-180) (peptide)
> 1e+06	GIP (gastric inhibitory peptide or glucose-dependent insulinotropic polypeptide) (from UniProt P09681 52-93)
10000	precursor GLP-1 (1-37) (from UniProt P01275 21-180) (peptide)
